Here are results for 2 compounds from publication PMC6103272, “Genome-Wide Association Studies of Free Amino Acid Levels by Six Multi-Locus Models in Bread Wheat” (Frontiers in Plant Science, 2018).

The test system of data set [1] is T1, TraesCS1D01G052500.
T1 construct: gene TDC; full-length cDNA in pGEX-6p-1; E. coli BL21(DE3)
The data set is described as follows: decarboxylase kinetics, Michaelis-Menten fit; product tryptamine by LC-MS. It counts as biochemical, Triticum aestivum. As to conditions: 50 ppm PLP; 10-1,250 uM tryptophan; assay buffer of the standard assay 50 mM Tris-HCl pH 8.0, 37 C.

For data set [2], the system named is N[C@@H](Cc1c[nH]c2ccccc12)C(=O)O. The data set is described as above. Format: biochemical, Oryza sativa. Particulars: 50 ppm PLP, 10-1,250 uM tryptophan, assay buffer of the standard assay 50 mM Tris-HCl pH 8.0, 37 C.

Usually Km stands for the concentration of substrate that gives half-maximal velocity. `N[C@@H](Cc1c[nH]c2ccccc12)C(=O)O` [tryptophan]: in data set [1], the Km was 100 ± 10 µM.
One may read the kcat as the number of substrate molecules converted per active site and unit of time at saturation. Usually kcat/Km stands for the turnover number divided by the Michaelis constant. Take OsTDC1 (Oryza sativa Japonica Group): in data set [2], the Michaelis-Menten constant (Km) amounted to 0.31 ± 0.03 mM, the kcat was found to be 3.66 ± 0.27 s⁻¹ and the kcat/Km is 11800 M⁻¹ s⁻¹.
